B1: human TLR1 TIR domain (TLR1-TIR), residues 625-786, untagged (domain or fragment, UniProt Q15399 625-786, looked up)
chain: NIPLEELQRNLQFHAFISYSGHDSFWVKNELLPNLEKEGMQICLHERNFVPGKSIVENIITCIEKSYKSIFVLSPNFVQSEWCHYELYFAHHNLFHEGSNSLILILLEPIPQYSIPSSYHKLKSLMARRTYLEWPKEKSKRGLFWANLRAAINIKLTEQAKK
notes: human TLR1, NCBI NP_003254.2, the entire intracellular TIR region of residues 625-786; Elutes as distinct dimer and monomer peaks on Superose-12; also called untagged TLR1-TIR

Experiments:
[1] = biological target: tirA coil-coil (CC) domain (Acinetobacter junii); test: SEC; analytical sizing of the full-length bacterial TIR-containing proteins, their CC domains and TIR constructs; sample loads 200 μM, except tirS-TIR E216A 20 μM and tirA-TIR E206A 50 μM
[2] = biological target: Acinetobacter junii TIR protein (tirA), full length (Acinetobacter junii); test: as above
[3] = biological target: tirS coil-coil (CC) domain (Staphylococcus aureus); test: as above
[4] = biological target: tirE coil-coil (CC) domain (Enterococcus); test: as above
[5] = biological target: Enterococcus TIR protein (tirE), full length (Enterococcus); test: as above
[6] = biological target: the molecule itself; test: SEC; analytical Superose-12; 50 mM Na2HPO4, pH 6.5, 150 mM NaCl, 1 mM DTT; TLR1-TIR and TLR2-TIR also after 30 min in 50 mM DTT (homodimers minimized)
[7] = biological target: human TLR2 TIR domain (TLR2-TIR), residues 633-784, untagged (human) (UniProt O60603); test: as above
[8] = biological target: B1; test: NMR titration; 15N-TLR2-TIR at 308 μM, unlabeled partner added (TLR1-TIR 308, 616, 924 μM; full-length tirA 308 μM); 15N-HSQC; global fit of several resonances; settings: both partners purified
[9] = biological target: the molecule itself; test: SEC; analytical sizing of the full-length bacterial TIR-containing proteins, their CC domains and TIR constructs; sample loads 200 μM, except tirS-TIR E216A 20 μM and tirA-TIR E206A 50 μM

tirA coil-coil (CC) domain (domain or fragment)
stoichiometry N [1]: 2

Acinetobacter junii TIR protein (tirA), full length (natural protein)
stoichiometry N [2]: 2

tirS coil-coil (CC) domain (domain or fragment)
stoichiometry N [3]: 2

tirE coil-coil (CC) domain (domain or fragment)
stoichiometry N [4]: 2

Enterococcus TIR protein (tirE), full length (natural protein)
stoichiometry N [5]: 2

B1
stoichiometry N [6]: 2

B2: human TLR2 TIR domain (TLR2-TIR), residues 633-784, untagged (domain or fragment, UniProt O60603 633-784, looked up)
chain: KAPSRNICYDAFVSYSERDAYWVENLMVQELENFNPPFKLCLHKRDFIPGKWIIDNIIDSIEKSHKTVFVLSENFVKSEWCKYELDFSHFRLFDENNDAAILILLEPIEKKAIPQRFCKLRKIMNTKTYLEWPMDEAQREGFWVNLRAAIKS
notes: human TLR2, NCBI NP_001305716.1, the entire intracellular TIR region of residues 633-784; 15N-labelled in the NMR experiments; Elutes as distinct dimer and monomer peaks on Superose-12; also called 15N-TLR2-TIR
stoichiometry N [7]: 2 | Kd [8]: 760 ± 230 µM

B3: Staphylococcus aureus TIR protein (tirS), full length (natural protein)
chain: MSVLETKLKSQMSKSAKIARNMNKLPDEIDRLRKRIERINKKRKPTSSNIRDLEKSNKQLVTKQQKLADLQVEYTKIEKKINETKINLQKEQSRNQKKLSSMLDKNTKGNEEIMEKLLTNSDQINEISNQIKKAVNQKEIIEYDVFLSHSSLDKEDYVSKISEKLIEKGLKVFEDVKVFEIGKSQTETMNMGILNSRFVVVFLSPNFIESGWSRYEFLSFLNREINEEHVIILPIWHKVSVEDVRAYNPYLVDKYALNTSDFSIEEIVEKIYQVIVNSKN
notes: Staphylococcus aureus TIR protein (tirS), NCBI WP_000114516.1, full length (CC domain and TIR domain); also called full-length tirS
stoichiometry N [9]: 2

— article PMC9318647, “Human and Bacterial Toll-Interleukin Receptor Domains Exhibit Distinct Dynamic Features and Functions” (Molecules, 2022)
